According to patent US6461815:

Experiments:
[1] = tested on: 30S ribosomal subunit (mRNA-programmed, activated; ribonucleoprotein); assay: FP; conditions: mnm5s2U34 and other native modifications; nitrocellulose filter binding (method is filter); poly(A)-programmed; CMN buffer 20 mM MgCl2, 100 mM NH4Cl, pH 7.2, 37 C then ice
[2] = tested on: 30S ribosomal subunit (mRNA-programmed, activated; ribonucleoprotein); assay: filter; conditions: CMN buffer 20 mM MgCl2, pH 7.2

In the case of “E. coli tRNALys(SUU), native fully modified”, the Kd [1] is reported as 70 nM.

“UCAGACUUUUAAUCUGA [ASLLys3(SUU), s2U34 anticodon stem-loop]” showed a Kd ([2]; s2U at tRNA position 34, poly(A)-programmed, also bound poly(AG)-programmed 30S) of 176 nM.

For “yeast ASLPhe(GAA), unmodified anticodon stem-loop”, the Kd ([2]; poly(U)-programmed) was 136 nM.

Substance yeast tRNAPhe(GmAA), native has a Kd ([2]; Gm34 and other native modifications, poly(U)-programmed) of 103 nM.
